Measured values as given in publication PMC8219891.

B1: dsDPC (substrate f) (dsDNA)
DNA 1: CCCAAAAAAAAAAATAAAAAAAAAAAACCC
DNA 2: GGGTTTTTTTTTTTTATTTTTTTTTTTGGG
modifications: dT15 of strand 1 covalently conjugated to protein G; strand 1 3'-phosphate
B2: Junction-DPC (substrate e) (mixed)
DNA 1: B1 DNA 1
DNA 2: GGGTTTTTTTTTTTT
modifications: dT15 of strand 1 covalently conjugated to protein G; strand 1 3'-phosphate

Biological target: T1, SPRTN-EQ (catalytically inactive) (UniProt Q9H040 1-489, E112Q)
T1 sequence: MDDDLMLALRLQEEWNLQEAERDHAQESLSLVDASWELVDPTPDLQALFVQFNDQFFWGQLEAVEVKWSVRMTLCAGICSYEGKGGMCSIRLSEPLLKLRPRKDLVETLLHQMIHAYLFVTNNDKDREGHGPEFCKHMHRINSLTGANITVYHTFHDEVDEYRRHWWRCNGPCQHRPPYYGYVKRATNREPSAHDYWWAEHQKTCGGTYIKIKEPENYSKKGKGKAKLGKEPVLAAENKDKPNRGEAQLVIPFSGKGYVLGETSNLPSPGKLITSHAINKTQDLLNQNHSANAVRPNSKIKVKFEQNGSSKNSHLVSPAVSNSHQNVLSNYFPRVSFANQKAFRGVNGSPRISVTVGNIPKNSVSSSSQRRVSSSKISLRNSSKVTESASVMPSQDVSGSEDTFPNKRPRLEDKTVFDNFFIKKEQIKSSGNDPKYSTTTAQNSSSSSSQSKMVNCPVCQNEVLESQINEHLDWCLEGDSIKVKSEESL
Test: EMSA

Binder	binding result
B1	binds
B2	binds
